Legend:
[1] = target: T1, Dimeric fibrinogen-like domain of human Ang-2 conjugated to human IgG1 (human); experiment: SPR, antibody captured, room temp
T1 construct: also called Dimeric Human Ang-2FD; Human Ang-2FD-hFc
Experimental: (§1) Antibody was captured on a goat anti-mouse IgG polyclonal antibody surface, a goat anti-human κ polyclonal antibody (Southern Biotech, Birmingham, Ala.) surface or a goat anti-human IgG polyclonal antibody (Jackson Immuno Research Lab, West Grove, Pa.) surface created through direct amine coupling to a BIACORE™ CM5 sensor chip to form a captured antibody surface. […] Antigen-antibody binding and dissociation were monitored in real time at room temperature. Kinetic analysis was performed to calculate KD and half-life of antigen/antibody complex dissociation.

[2] = target: T2, Dimeric fibrinogen-like domain of mouse (Mus musculus) Ang-2 conjugated to human IgG1 (mouse (Mus musculus)); experiment: SPR, antibody captured, room temp
T2 construct: also called Dimeric Mouse Ang-2FD; Mouse Ang-2FD-hFc
Experimental: as §1

[3] = target: T3, Dimeric fibrinogen-like domain of monkey (Macca fascicularis) Ang-2 conjugated to human IgG1 (monkey (Macca fascicularis)); experiment: SPR, antibody captured, room temp
T3 construct: also called Dimeric Monkey Ang-2FD; Monkey Ang-2FD-hFc
Experimental: as §1

[4] = target: T1, Dimeric fibrinogen-like domain of human …; experiment: blocking ELISA, 16.67 nM antibody, coated hTie-2-mFc
Experimental: (§2) Tie-2 is a natural receptor for Ang-2. Anti-Ang-2 antibodies were tested for their ability to block Ang-2 binding to human Tie-2 (hTie-2). hTie-2-mFc (a chimeric construct consisting of human Tie-2 conjugated to mouse IgG; SEQ ID NO:525) was coated onto 96-well plates at a concentration of 2 μg/ml and incubated overnight followed by washing four times in wash buffer (PBS with 0.05% Tween-20). The plate was then blocked with PBS (Irvine Scientific, Santa Ana, Calif.) containing 0.5% BSA (Sigma-Aldrich Corp., St. Louis, Mo.) for one hour at room temperature. In a separate plate, purified anti-Ang-2 antibodies, at a starting concentration of 50 nM, were serially diluted by a factor of three across the plate. […] The antibody/Ang-2FD-Fc mixture was then added to the plate containing hTie-2-mFc and incubated for one hour at room temperature.

[5] = target: T2, Dimeric fibrinogen-like domain of mouse …; experiment: as above
Experimental: as §2

[6] = target: T3, Dimeric fibrinogen-like domain of …; experiment: as above
Experimental: as §2

Mouse Ang-2FD-hFc = target: T4, Mouse Ang-2FD-hFc (mouse (Mus musculus)); experiment: ELISA, 16.67 nM antibody + 8 nM mouse Ang-2FD-hFc, on coated hTie-2-mFc (competitor)
T4 construct: Order of the pieces follows the name; also called Dimeric Mouse Ang-2FD
Experimental: as §2

Human Ang-2FD-hFc = target: T5, Human Ang-2FD-hFc (human); experiment: ELISA, 16.67 nM antibody + 2 nM human Ang-2FD-hFc, on coated hTie-2-mFc (competitor)
T5 construct: Order of the pieces follows the name (Ang-2FD, then hFc); also called Dimeric Human Ang-2FD; human Ang-2FD protein conjugated to human IgG
Experimental: as §2

B1: H1M724N (antibody, V domains shown)
VH: QVQLVESGGGVVQPGRSLRLSCAASGFTLSNYGMHWVRQAPGKGLEWVAVIWHDGSNTYYADSVKGRFTISRDNSKNTLYLQMNSLRAEDTAVYYCTREGLDFWSGYYPNWFDPWGQGTLVTVSS
VL: DIQMTQSPSSLSASVGDRVTITCRASQGIRNDLGWYQQKPGKAPKRLIYAASNLQGGVPSRFSGSGSGTEFTLTISSLQPEDFAAYYCLQHNIYPLTFGGGTKVEIK
Kd [1]: 0.179 nM
T1/2 [1]: 42.7 min
Kd [2]: 0.694 nM
T1/2 [2]: 16 min
Kd [3]: 0.73 nM
T1/2 [3]: 25.7 min
Percent Blocking of Ang-2FD Binding to Tie-2 [4]: 99.5%
Percent Blocking of Ang-2FD Binding to Tie-2 [5]: 96.6%
Percent Blocking of Ang-2FD Binding to Tie-2 [6]: 95.2%

B2: H1M728N (antibody, V domains shown)
VH: EVQLVESGGDLVQPGGSLRLSCTASGFTFSKYWMTWVRQAPGRGLEWVANIKEDGNEKYFLDSVKGRFTISRDNAKDLLFLQMNSLRGEDTAVYYCVRDRGIEVAGPFDYWGQGTLVTVSS
VL: DIQMTQSPSTLSASVGDRVTVTCRASQTIINWLAWYQQKPGKAPKLLISKASSLESGVPSRFSGSGSGTEFTLTISSLQPDDFATYYCQQYNRYWTFGQGTMVEIK
Kd [1]: 0.137 nM
T1/2 [1]: 58.4 min
Kd [2]: 5.65 nM
T1/2 [2]: 9.9 min
Kd [3]: 1.58 nM
T1/2 [3]: 69.5 min
Percent Blocking of Ang-2FD Binding to Tie-2 [4]: 98.5%
Percent Blocking of Ang-2FD Binding to Tie-2 [5]: 83.9%
Percent Blocking of Ang-2FD Binding to Tie-2 [6]: 97.1%

B3: H2M730N (antibody, V domains shown)
VH: EVQLVESGGGLVQPGGSLRLSCAASGFAFRSYWMTWVRQAPGKGLEWVANIQQDGNDKYYVDSVKGRFTISRDNAKNSLYLQMNSLRAEDTAVYYCARDTGIAEAGPFDYWGQGTLVTVSS
VL: DIQMTQSPSTLSASVGDRVSITCRASQTIISWLAWYQQKPGKAPRLLIYKASSLESGVPSRFSGSGSGTEFTLTINSLQPDDFATYYCQQYNRYWTFGQGTKVEIK
Kd [1]: 0.21 nM
T1/2 [1]: 47 min
Kd [3]: 0.842 nM
T1/2 [3]: 36.6 min
Percent Blocking of Ang-2FD Binding to Tie-2 [4]: 98.9%
Percent Blocking of Ang-2FD Binding to Tie-2 [5]: 55%
Percent Blocking of Ang-2FD Binding to Tie-2 [6]: 97.3%

B4: H1M732N (antibody, V domains shown)
VH: EVQLVESGGGLVRPGGSLRLSCAASGFTFTNAWMSWVRQAPGKGLEWIGQIKSKTDGGTIDYAAPVKGRFTVSRDDSENTLFLQMNSLKTEDTAVYYCAGNWNYVDFDYWGQGTLVTVSS
VL: DIQMTQSPSSLSASVGDRVTITCRASQDIRNDLGWYQQKPGKAPKRLIYAASSLQGGVPSRFSGSGSGTEFTLTISSLQPEDFATYYCLQHNSYPFTFGPGTKVDIK
Kd [1]: 0.484 nM
T1/2 [1]: 35.5 min
Kd [2]: 1.7 nM
T1/2 [2]: 21.4 min
Kd [3]: 7.33 nM
T1/2 [3]: 24.1 min
Percent Blocking of Ang-2FD Binding to Tie-2 [4]: 97.7%
Percent Blocking of Ang-2FD Binding to Tie-2 [5]: 90.9%
Percent Blocking of Ang-2FD Binding to Tie-2 [6]: 95.8%

B5: H2M742N (antibody, V domains shown)
VH: DVQLLESGGDLVQPGGSLRLSCEASGFTFRNYVMIWVRQAPGKGLEWVSGISNSGGTTHYTDSVKGRFTISRDNSKNTLYLQINSLRAEDTAVYYCAKGYLDTSLIEGNWFDPWGQGTLVTVSS
VL: NIVMTQSPLSLPVTPGEPASISCRSSQSLLHSNGFNYLNWFLQKPGQSPQLLIYLGSNRASGVPDKFSGSGSGTDFTLNINRVEAEDVGIYFCMQTLQTPLTFGGGTKVEIK
Kd [1]: 0.295 nM
T1/2 [1]: 38 min
Kd [2]: 0.61 nM
T1/2 [2]: 30.8 min
Kd [3]: 6.17 nM
T1/2 [3]: 28.5 min
Percent Blocking of Ang-2FD Binding to Tie-2 [4]: 99.6%
Percent Blocking of Ang-2FD Binding to Tie-2 [5]: 98.6%
Percent Blocking of Ang-2FD Binding to Tie-2 [6]: 94.1%

B6: H2M743N (antibody, V domains shown)
VH: EVQLLESGGGLVQPGGSLRLSCAASGFTFRKYAMSWVRQAPGKGLEWVSVISVSGGNTYYADSVKGRFTISRDNSKNTLYLQLNSLRAEDTAVYYCAKDLTDIVLMVYVDYWGQGTLVTVSS
VL: DIQMTQSPSSVSASVGDRVTITCRASQDIDRWLAWYQQKPGKAPKLLIYAASSLQSGVPSRFSGSGSGTDFTLTISTLQPEDFATYYCQQANSLPFTFGGGTKVEIK
Kd [1]: 0.154 nM
T1/2 [1]: 167 min
Kd [2]: 0.882 nM
T1/2 [2]: 195 min
Kd [3]: 0.234 nM
T1/2 [3]: 169 min
Percent Blocking of Ang-2FD Binding to Tie-2 [4]: 99.6%
Percent Blocking of Ang-2FD Binding to Tie-2 [5]: 98.4%
Percent Blocking of Ang-2FD Binding to Tie-2 [6]: 95.1%

B7: H2M744N (antibody, V domains shown)
VH: QVQLVQSGVEVKKPGASVKVSCKTSGYTFSNNGFSWVRQAPGQGLEWLGWISGYNGNTNYAQKFQGRVTMTTDTSTSTAYMELRTLRSDDTAVYYCARDQDYSNFHWLDPWGQGTLVTVAS
VL: DIQMTQSPSSVSASVGDRVIITCRASQGLSSWLAWYQQKPGTAPKLLIHSASSLQTGVPSRFSGSGSGTEFALTINSLQPEDFGTYYCQQANSFPLTFGGGTRVEIK
Kd [1]: 0.0989 nM
T1/2 [1]: 109 min
Kd [2]: 0.143 nM
T1/2 [2]: 223 min
Kd [3]: 0.5 nM
T1/2 [3]: 282 min
Percent Blocking of Ang-2FD Binding to Tie-2 [4]: 99.5%
Percent Blocking of Ang-2FD Binding to Tie-2 [5]: 98.4%
Percent Blocking of Ang-2FD Binding to Tie-2 [6]: 95.5%

B8: H2M749N (antibody, V domains shown)
VH: QVQLVESGGGVVQPGRSLRLSCAASGFTFSSYGMHWVRQAPGKGLEWVAVIWYDEFNKYYADSVKGRFTISRDNSKNTLYLQMNSLRAEDTAVYYCARERESGYSYGFDYWGQGTLVTVSS
VL: EIVMTQSPATLSVSPGERATLSCRAGQSVSSNLAWYQQKPGQAPRLLIYGASTRATGIPARFSGSGSGTEFTLTISSLQSEDFAVYYCQQYNNWWTFGQGTKVEIK
notes: Hybridoma-derived chimeric antibody, mouse constant domains; also called H1M749N; H1M749
Kd [1]: 0.165 nM
T1/2 [1]: 42.9 min
Kd [2]: 0.529 nM
T1/2 [2]: 25.5 min
Kd [3]: 1.5 nM
T1/2 [3]: 40.9 min
Percent Blocking of Ang-2FD Binding to Tie-2 [4]: 99.5%
Percent Blocking of Ang-2FD Binding to Tie-2 [5]: 97.3%
Percent Blocking of Ang-2FD Binding to Tie-2 [6]: 97.4%

B9: H2M750N (antibody, V domains shown)
VH: QVKLVESGGGVVQPGRSLRVSCAASGFTFSSYGMHWVRQAPGKGLEWLAIIWYDGDNKYYSDSVKGRFTISRDNSKNTLYLQMNSLRAEDTAEYYCVRDASIASRFLDYWGQGTLVTVSS
VL: DIQMTQSPSSLSASIGDRVTITCRATQDINNYLAWFQQKPGKAPKSLIYATSNLQSGVPSKFSGSGSGTDYTLTISSLQPEDFSTYYCQQYHSYPLTFGGGTKVEIK
Kd [1]: 0.362 nM
T1/2 [1]: 32.2 min
Kd [3]: 1.47 nM
T1/2 [3]: 23 min
Percent Blocking of Ang-2FD Binding to Tie-2 [4]: 99.4%
Percent Blocking of Ang-2FD Binding to Tie-2 [5]: 53.7%
Percent Blocking of Ang-2FD Binding to Tie-2 [6]: 97.4%

B10: H1H685P (antibody, V domains shown)
VH: EVQLVESGGGLVQPGGSLRLSCAASGFTFSSYDIHWVRQATGKGLEWVSAIGPAGDTYYPGSVKGRFTISRENAKNSLYLQMNSLRAGDTAVYYCARGLITFGGLIAPFDYWGQGTLVTVSS
VL: EIVLTQSPGTLSLSPGERATLSCRASQSVSSTYLAWYQQKPGQAPRLLIYGASSRATGIPDRFSGSGSGTDFTLTISRLEPEDFAVYYCQHYDNSQTFGQGTKVEIK
notes: Fully human antibody, human IgG1; also called mAb1
Percent Blocking of Ang-2FD Binding to Tie-2 (Mouse Ang-2FD-hFc): 97.1%

B11: H1H693P (antibody, V domains shown)
VH: EVQLVESGGGLVQPGESLRLSCAASGFTFSSYAMSWVRQGPGKGLEWVSSISGSGGTTYYADSVEGRFTISRDNSKNTLYLHMNSLRAEDTAVYYCAKDFLDYSTYLAFDLWGQGTMVTVSS
VL: DIQMTQSPSSVSASVGDRVTITCRASQGISSWLAWYQQKPGKAPKLLIYAASSLQSGVPSRFSGSGSGTDFTLTISSLQPEDFATYYCQQANSFPRTFGQGTKVEIK
notes: Fully human antibody, human IgG1
Percent Blocking of Ang-2FD Binding to Tie-2 (Human Ang-2FD-hFc): 73.9%
Percent Blocking of Ang-2FD Binding to Tie-2 (Mouse Ang-2FD-hFc): 63.6%

B12: H1H695P (antibody, V domains shown)
VH: QVQLVESGGGVVQPGRSLRLSCAASGFTFSSYGMHWVRQAPGKGLEWVAVMWYDETNKYYADSVKGRFTISRDNSKNTLYLQMNSLRAEDTAVYYCARYSGYEDYYHGMDVWGQGTTVTVS
VL: EIVMTQSPATPSVSPGERATLSCRASQSISSNLAWYQQKPGQAPRLLIYGASTRATGIPARFSGSGSGTEFTLTISSLQSEDFAVYYCQHYNNWITFGQGTRLEIK
notes: as for B11
Percent Blocking of Ang-2FD Binding to Tie-2 (Human Ang-2FD-hFc): 98.4%
Percent Blocking of Ang-2FD Binding to Tie-2 (Mouse Ang-2FD-hFc): 97.6%

— patent publication US20150147342A1 (published 2015)
